In assay [1] the test system is periplasmic domain of RseA. The assay is described as follows: Cleavage of 35S-labeled RseA periplasmic domain by DegS variants. The assay is classed as biochemical, E. coli.
For a further assay, the system named is DegS. To be noted: substrate-saturated; ref Sohn and Sauer, 2009; cited from earlier work.
Where [2] appears, read: H198P background, compared to H198P.

Changes are numbered by the printed parent chain. Names and notes keep the numbering of the source.

These results are taken from article PMC4351158 (Structure (London, England : 1993), 2015).

B1: H198P/P229A (protein, UniProt P0AEE3 1-355, looked up, variant H198P P229A)
Serine endoprotease DegS: MFVKLLRSVAIGLIVGAILLVAMPSLRSLNPLSTPQFDSTDETPASYNLAVRRAAPAVVNVYNRGLNTNSHNQLEIRTLGSGVIMDQRGYIITNKHVINDADQIIVALQDGRVFEALLVGSDSLTDLAVLKINATGGLPTIPINARRVPHIGDVVLAIGNPYNLGQTITQGIISATGRIGLNPTGRQNFLQTDASINPGNSGGALVNSLGELMGINTLSFDKSNDGETAEGIGFAIPFQLATKIMDKLIRDGRVIRGYIGIGGREIAPLHAQGGGIDQLQGIVVNEVSPDGPAANAGIQVNDLIISVDNKPAISALETMDQVAEIRPGSVIPVVVMRDDKQLTLQVTIQEYPATN
Take B1: the “YYF-stimulated cleavage activity, in words” value in assay [1] (setting [2]) is on record as “more active than H198P”.

B2: H198P/E230A (protein, UniProt P0AEE3 1-355, looked up, variant H198P E230A)
Serine endoprotease DegS: B1 Serine endoprotease DegS with A229P, E230A
B2: in assay [1] (setting [2]), the “YYF-stimulated cleavage activity, in words” value is on record as “activity within error of H198P”.

B3: P229A: DegS variant P229A (protein)
chain: RSLNPLSTPQFDSTDETPASYNLAVRRAAPAVVNVYNRGLNTNSHNQLEIRTLGSGVIMDQRGYIITNKHVINDADQIIVALQDGRVFEALLVGSDSLTDLAVLKINATGGLPTIPINARRVPHIGDVVLAIGNPYNLGQTITQGIISATGRIGLNPTGRQNFLQTDASINHGNSGGALVNSLGELMGINTLSFDKSNDGETAEGIGFAIPFQLATKIMDKLIRDGRVIRGYIGIGGREIAPLHAQGGGIDQLQGIVVNEVSPDGPAANAGIQVNDLIISVDNKPAISALETMDQVAEIRPGSVIPVVVMRDDKQLTLQVTIQEYPATN
modifications: left off: His6, N-terminal, state not stated
Take B3: the “YYF-stimulated cleavage activity, in words” value in assay [1] (WT background, compared to wild-type DegS) is listed as “more active than wild-type DegS”.

B4: WT DegS: Wild-type E. coli DegS (residues 27–355) with N-terminal His6 tag replacing the membrane anchor (protein)
chain: B3 chain with A203P
modifications: left off: His6, N-terminal, state not stated
With B4, the “DegS in the active conformation” value in the assay on DegS is recorded as ~ 0.3%.

B5: E230A: DegS variant E230A (protein)
chain: B3 chain with A203P, E204A
modifications: left off: His6, N-terminal, state not stated
With B5, the “YYF-stimulated cleavage activity relative to wild type” value in assay [1] (WT background, with YYF, % of wild-type activity) is given as ~ 10%.
